Kd data for two molecules are collected here from publication PMC6726503 (2019).

For the assay, the target named is T1, TGF-β2 (Homo sapiens, UniProt P61812).
T1 chain: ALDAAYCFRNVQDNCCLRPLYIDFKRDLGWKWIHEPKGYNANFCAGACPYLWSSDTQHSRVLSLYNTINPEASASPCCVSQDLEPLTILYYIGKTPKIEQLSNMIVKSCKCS
The experiment in a line: SPR. In general terms: SPR reads the build-up and loss of mass on a sensor chip optically.

B1: betaglycan O-ZP (protein)
chain: GPEPSTRCELSPINASHPVQALMESFTVLSGCASRGTTGLPREVHVLNLRSTDQGPGQRQREVTLHLNPIASVHTHHKPIVFLLNSPQPLVWHLKTERLAAGVPRLFLVSEGSVVQFPSGNFSLTAETEERNFPQENEHLLRWAQKEYGAVTSFTELKIARNIYIKVGEDQVFPPTCNIGKNFLSLNYLAEYLQPKAAEGCVLPSQPHEKEVHIIELITPSSNPYSAFQVDIIVDIRPAQEDPEVVKNLVLILKCKKSVNWVIKSFDVKGNLKVIAPNSIGFGKESERSMTMTKLVRDDIPSTQENLMKWALDNGYRPVTSYTMAPVANRFHLRLENNEEMRDEEVHTIPPELRILLDPDHPPALDNPLFPGEGSPNGGLPFPFPDIPRRGWKEGEDRIPRPKQPIVPSVQLLPDHREPEEVQGGVDIALSVKCDHEKMVVAVDKDSFQTNGYSGMELTLLDPSCKAKMNGTHFVLESPLNGCGTRHRRSTPDGVVYYNSIVVQAPSPGDSSGWPDGYEDLESGDNGFPGDGDEGETAPLSRAGVVVFNCSLRQLRNPSGFQGQLDGNATFNMELYNTDLFLVPSPGVFSVAENEHVYVEVSVTKADQDLGFAIQTCFLSPYSNPDRMSDYTIIENICPKDDSVKFYSSKRVHFPIPHAEVDKKRFSFLFKSVFNTSLLFLHCELTLCSRKKGSLKLPRCVTPDDACTSLDATMIWTMMQNKKTFTKPLAVVLQVDYKENVPSTKDSSPIPPPPPQIFHGLDTL
For orientation: Kd means a measure of binding affinity in units of concentration. Lower therefore signals tighter binding. For the molecule B1, the Kd amounted to 0.5 nM.

B2: betaglycan O (protein)
chain: GPEPSTRCELSPINASHPVQALMESFTVLSGCASRGTTGLPREVHVLNLRSTDQGPGQRQREVTLHLNPIASVHTHHKPIVFLLNSPQPLVWHLKTERLAAGVPRLFLVSEGSVVQFPSGNFSLTAETEERNFPQENEHLLRWAQKEYGAVTSFTELKIARNIYIKVGEDQVFPPTCNIGKNFLSLNYLAEYLQPKAAEGCVLPSQPHEKEVHIIELITPSSNPYSAFQVDIIVDIRPAQEDPEVVKNLVLILKCKKSVNWVIKSFDVKGNLKVIAPNSIGFGKESERSMTMTKLVRDDIPSTQENLMKWALDNGYRPVTSYTMAPVANRFHLRLENNEEMRDEEVHTIPPELRILLDPDHPPALDNPLFPGEGSPNGGLPFPFPD
For the molecule B2, the Kd was found to be 10 nM.
